In PMC5278371:

Substrate: O=[N+]([O-])c1ccc(O[C@@H]2O[C@H](CO)[C@@H](O)[C@H](O)[C@H]2O)cc1
Assay: purified protein
Details: free enzyme, 2–16 mM p-NPG, 50 mM NaAc-HAc buffer, 40 °C

B1: β-glucosidase (BG), his-tagged (Coptotermes formosanus) (protein)
chain: DDVDNDTLVTFPDDFKLGAATASYQIEGGWDADGKGPNIWDTLTHERPHLVVDRSTGDVADDSYHLYLEDVRLLKDMGAEVYRFSISWARILPEGHDNNVNEAGIEYYNKLIDALLRNGIEPMVTMYHWDLPQKLQDLGGWPNRILAKYAENYARVLFSNFGDRVKQWLTFNEPLTFMDAYASDTGMAPSVDTPGIGDYLTAHTVILAHANIYRLYEREFREEQQGQVGIALNIHWCEPETGSPKDVEACERYQQFNLGIYAHPIFSENGDYPSVLKARVDANSASEGYTTSRLPKFTPEEVAFVNGTYDFLGLNFYTAVVGRDGVEGEPPSRYRDMGTITSQDPEWPESASSWLRVVPWGFRKELNWIANEYGNPPIFITENGFSDYGGVNDTNRVLYYTEHLKEMLKAIHIDGVNVIGYTAWSLIDNFEWLRGYTERFGIHAVNFIDPSRPRTPKESARVLTEIFKTRQIPERFRD
B1 gave a Km of 4.2 ± 0.3 mM, a kcat of 58.8 s⁻¹ and a kcat/Km of 14000 M⁻¹ s⁻¹.
